Data from patent US20240409647A1 (SINOMAB BIOSCIENCE, published 2024).
One block for each binder: values may come before it.

How the values were obtained:
human TSLP (R&D systems) = molecular target: T1, human TSLP (R&D systems) (human, UniProt Q969D9 29-159); assay: BLI (Octet RED96), binder captured via anti-human Fab CH1, TSLP in solution
T1 construct: also called thymic stromal lymphopoietin
Experimental: (§1) Biosensors immobilized with irrelevant antibody (SM03, anti-human CD22 chimeric IgG1 antibody, SinoMab BioScience Limited, 20 μg/mL) were used as control reference.

[1] = molecular target: T2, human IL-33 (R&D systems) (human, UniProt O95760 112-270); assay: BLI (Octet RED96), binder captured via anti-human Fab CH1, IL33 in solution
T2 sequence (looked up): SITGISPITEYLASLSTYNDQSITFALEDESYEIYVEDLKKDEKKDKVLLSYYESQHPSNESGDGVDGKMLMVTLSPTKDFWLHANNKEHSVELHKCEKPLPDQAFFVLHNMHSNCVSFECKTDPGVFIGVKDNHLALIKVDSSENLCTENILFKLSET
Experimental: as §1

B2: SM17-anti IL-33 3# bsBp (bispecific antibody, human IgG4 S228P, kappa)
heavy: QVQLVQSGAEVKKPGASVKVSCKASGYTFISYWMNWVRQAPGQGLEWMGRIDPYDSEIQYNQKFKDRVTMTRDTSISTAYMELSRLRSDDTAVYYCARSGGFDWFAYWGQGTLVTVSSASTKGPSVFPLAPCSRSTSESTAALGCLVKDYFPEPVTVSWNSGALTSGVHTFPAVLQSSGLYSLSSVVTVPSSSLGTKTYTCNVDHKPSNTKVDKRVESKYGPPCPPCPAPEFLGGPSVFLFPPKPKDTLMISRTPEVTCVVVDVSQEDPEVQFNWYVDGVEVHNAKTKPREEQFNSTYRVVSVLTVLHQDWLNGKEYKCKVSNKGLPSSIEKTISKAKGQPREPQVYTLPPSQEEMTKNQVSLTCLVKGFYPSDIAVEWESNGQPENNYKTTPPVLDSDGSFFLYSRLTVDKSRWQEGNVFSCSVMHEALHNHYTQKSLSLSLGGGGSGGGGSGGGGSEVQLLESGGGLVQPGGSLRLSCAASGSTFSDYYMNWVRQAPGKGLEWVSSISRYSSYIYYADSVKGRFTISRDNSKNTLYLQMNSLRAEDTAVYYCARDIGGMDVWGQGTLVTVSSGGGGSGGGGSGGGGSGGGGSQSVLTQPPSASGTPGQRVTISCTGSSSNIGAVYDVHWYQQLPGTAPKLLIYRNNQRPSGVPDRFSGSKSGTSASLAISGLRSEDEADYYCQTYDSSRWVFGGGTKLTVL
light: DIQMTQSPSSLSASVGDRVTITCRASENINSNLAWYQQKPGKAPKLLLYDVTNLADGVPSRFSGSGSGTDYTLTISSLQPEDFATYYCQHFWGPPYTFGGGTKVEIKRTVAAPSVFIFPPSDEQLKSGTASVVCLLNNFYPREAKVQWKVDNALQSGNSQESVTEQDSKDSTYSLSSTLTLSKADYEKHKVYACEVTHQGLSSPVTKSFNRGEC
notes: SM17 IgG with an anti-IL-33 scFv fused to the C-terminus of each heavy chain
Kd [1]: ≤ 0.0425 nM
koff [1]: < 1e-07 s⁻¹
kon [1]: 22700 M⁻¹ s⁻¹

B3: SM17-anti IL-33 1# bsBp (bispecific antibody, human IgG4 S228P, kappa)
heavy: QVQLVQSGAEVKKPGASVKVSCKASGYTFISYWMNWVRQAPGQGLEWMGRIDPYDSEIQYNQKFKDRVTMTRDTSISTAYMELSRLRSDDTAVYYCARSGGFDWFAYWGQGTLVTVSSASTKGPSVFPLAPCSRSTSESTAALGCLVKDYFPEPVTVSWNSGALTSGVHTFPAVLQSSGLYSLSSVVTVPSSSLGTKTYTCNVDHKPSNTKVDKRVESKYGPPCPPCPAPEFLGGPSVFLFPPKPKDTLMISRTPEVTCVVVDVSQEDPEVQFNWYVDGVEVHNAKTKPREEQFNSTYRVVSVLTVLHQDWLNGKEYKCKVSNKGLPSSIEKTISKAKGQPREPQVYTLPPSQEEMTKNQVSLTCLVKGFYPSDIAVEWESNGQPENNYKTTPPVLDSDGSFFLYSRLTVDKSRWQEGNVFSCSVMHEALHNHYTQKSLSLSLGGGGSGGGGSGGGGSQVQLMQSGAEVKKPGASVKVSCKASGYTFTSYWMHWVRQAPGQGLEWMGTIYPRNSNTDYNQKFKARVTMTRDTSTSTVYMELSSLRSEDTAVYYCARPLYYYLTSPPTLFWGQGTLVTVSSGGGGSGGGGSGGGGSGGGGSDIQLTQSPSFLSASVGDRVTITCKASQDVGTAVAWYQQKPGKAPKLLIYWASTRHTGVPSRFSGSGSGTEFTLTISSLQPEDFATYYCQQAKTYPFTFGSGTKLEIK
light: B2 light
notes: as for B2
Kd [1]: 28.9 nM
koff [1]: 0.000283 s⁻¹
kon [1]: 9810 M⁻¹ s⁻¹

B4: SM17-anti IL-33 2# bsBp (bispecific antibody, human IgG4 S228P, kappa)
heavy: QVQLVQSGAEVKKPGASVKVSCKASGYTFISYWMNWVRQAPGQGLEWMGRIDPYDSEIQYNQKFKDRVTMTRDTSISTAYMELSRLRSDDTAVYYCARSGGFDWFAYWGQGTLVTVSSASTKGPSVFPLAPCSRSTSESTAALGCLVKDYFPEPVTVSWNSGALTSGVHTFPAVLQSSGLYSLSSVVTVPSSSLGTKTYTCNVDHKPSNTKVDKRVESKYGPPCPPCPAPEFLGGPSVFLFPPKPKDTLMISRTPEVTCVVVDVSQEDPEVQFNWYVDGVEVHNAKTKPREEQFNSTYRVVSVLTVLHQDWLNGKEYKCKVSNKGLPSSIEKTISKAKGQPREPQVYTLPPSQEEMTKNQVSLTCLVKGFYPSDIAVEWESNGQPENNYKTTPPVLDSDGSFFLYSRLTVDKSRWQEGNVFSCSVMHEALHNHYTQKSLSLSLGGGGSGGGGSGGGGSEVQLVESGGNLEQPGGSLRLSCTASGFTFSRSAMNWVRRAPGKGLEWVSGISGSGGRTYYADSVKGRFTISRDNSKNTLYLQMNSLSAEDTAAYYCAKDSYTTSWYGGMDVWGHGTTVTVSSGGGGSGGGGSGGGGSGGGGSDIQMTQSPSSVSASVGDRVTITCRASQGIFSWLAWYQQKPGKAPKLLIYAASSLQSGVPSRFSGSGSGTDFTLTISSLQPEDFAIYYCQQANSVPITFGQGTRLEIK
light: B2 light
notes: as for B2
Kd [1]: < 0.0259 nM
koff [1]: < 1e-07 s⁻¹
kon [1]: 37300 M⁻¹ s⁻¹

More lines, now with the values ahead:

Kd (human TSLP (R&D systems)): 0.511 nM
koff (human TSLP (R&D systems)): 0.000241 s⁻¹
kon (human TSLP (R&D systems)): 472000 M⁻¹ s⁻¹
B1: SM17-anti TSLP 1# bsBp (bispecific antibody, human IgG4 S228P, kappa)
heavy: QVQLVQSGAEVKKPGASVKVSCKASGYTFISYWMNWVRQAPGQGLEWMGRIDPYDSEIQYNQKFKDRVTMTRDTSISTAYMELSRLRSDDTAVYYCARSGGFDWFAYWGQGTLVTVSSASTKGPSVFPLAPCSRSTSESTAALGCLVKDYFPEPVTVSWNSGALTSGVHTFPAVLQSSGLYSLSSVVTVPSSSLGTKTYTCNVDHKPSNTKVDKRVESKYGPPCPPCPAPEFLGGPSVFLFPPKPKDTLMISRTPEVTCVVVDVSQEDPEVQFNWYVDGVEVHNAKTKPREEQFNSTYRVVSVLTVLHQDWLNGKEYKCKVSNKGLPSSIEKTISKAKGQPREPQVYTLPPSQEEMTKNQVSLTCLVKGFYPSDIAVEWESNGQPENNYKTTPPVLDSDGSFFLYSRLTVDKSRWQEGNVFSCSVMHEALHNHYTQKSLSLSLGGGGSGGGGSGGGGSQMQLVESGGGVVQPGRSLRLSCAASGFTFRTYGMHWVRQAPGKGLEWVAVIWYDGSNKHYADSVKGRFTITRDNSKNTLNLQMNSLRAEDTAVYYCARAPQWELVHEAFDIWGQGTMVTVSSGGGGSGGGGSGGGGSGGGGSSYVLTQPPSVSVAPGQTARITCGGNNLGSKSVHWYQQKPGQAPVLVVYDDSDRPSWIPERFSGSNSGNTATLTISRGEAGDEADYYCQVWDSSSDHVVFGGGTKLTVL
light: B2 light
notes: SM17 IgG with an anti-TSLP scFv fused to the C-terminus of each heavy chain; expressed in ExpiCHO-S cells

Kd (human TSLP (R&D systems)): < 0.001 nM
koff (human TSLP (R&D systems)): < 1e-07 s⁻¹
kon (human TSLP (R&D systems)): 374000 M⁻¹ s⁻¹
B5: SM17-anti TSLP 2# bsBp (bispecific antibody, human IgG4 S228P, kappa)
heavy: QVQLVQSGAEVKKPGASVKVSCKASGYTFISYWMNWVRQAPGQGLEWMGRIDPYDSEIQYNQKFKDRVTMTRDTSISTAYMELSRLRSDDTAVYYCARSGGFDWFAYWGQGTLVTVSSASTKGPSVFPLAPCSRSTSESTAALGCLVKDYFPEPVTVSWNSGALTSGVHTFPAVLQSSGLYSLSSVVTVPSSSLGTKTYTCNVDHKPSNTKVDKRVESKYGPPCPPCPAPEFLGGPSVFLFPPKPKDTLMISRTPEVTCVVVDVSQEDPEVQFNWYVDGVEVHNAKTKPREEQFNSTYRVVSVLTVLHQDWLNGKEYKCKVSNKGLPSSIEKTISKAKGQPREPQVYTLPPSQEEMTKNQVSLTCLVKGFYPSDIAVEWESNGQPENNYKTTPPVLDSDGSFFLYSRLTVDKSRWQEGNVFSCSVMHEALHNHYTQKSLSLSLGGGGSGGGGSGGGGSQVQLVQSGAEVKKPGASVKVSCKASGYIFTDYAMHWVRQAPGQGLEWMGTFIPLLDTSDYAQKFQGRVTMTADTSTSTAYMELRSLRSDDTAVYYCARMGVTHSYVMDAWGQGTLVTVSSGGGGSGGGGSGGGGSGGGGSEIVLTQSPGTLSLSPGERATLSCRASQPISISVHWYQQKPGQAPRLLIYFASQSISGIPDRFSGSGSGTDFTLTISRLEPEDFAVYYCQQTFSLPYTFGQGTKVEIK
light: B2 light
notes: SM17 IgG with an anti-TSLP scFv fused to the C-terminus of each heavy chain; also called SM17-anti-TSLP bsBp 2 #
